Measurements as given in patent US6528275B1, “Substrates and inhibitors of proteolytic enzymes” (Peptide Therapeutics Limited, priority 1996, dated 2003).

How the values were obtained:
Assay in all cases: Der pI substrate assay with FRET peptides (fluorescence, Km, kcat/Km)
Format in all cases: biochemical, house dust mite
Details in all cases: other: purified Der pI; peptides SEQ ID Nos. 1-76; pH 8.25
[1] = substrate: CC(C)CC[C@H](NC(=O)[C@H](C)NC(=O)[C@H](Cc1ccc(-c2ccccc2)cc1)NC(=O)c1ccccc1N)C(=O)N[C@@H](CC(=O)O)C(=O)N[C@@H](Cc1ccc(O)c([N+](=O)[O-])c1)C(=O)N[C@@H](CC(=O)O)C(N)=O
Procedure: (§1) Using the general techniques described above, the following compounds were prepared and assayed as potential substrates against Der pI purified as described above.
(§2) Each mixture of 20 compounds in the libraries of the apparatus described herein was screened at a concentration of 1.0 μM per compound in an assay against the cysteinyl protease Der pI.
(§3) Plate assays were carried out in 96 well plate format, using 0.1 ug of Der pI per 100 μL assay volume in each well and using 20 μM of the substrate. All assays were performed in Assay Buffer (AB; 50 mM potassium phosphate, pH 8.25 containing 1 mM ethylenediaminetetraacetic acid (EDTA) and 1 mM dithiothreitol (DTT). The Der pI enzyme is pre-activated by addition of DTT and this in incubated at room temperature for 5 min. prior to initiation of the assay. As an example for the screening methodology, each well contains a 5 μL of a 20 μM solution of the test compound in DMSO, 10 μL of a 200 μM aqueous solution of the substrate, 2, and 85 μL of Der pI in AB is added to initiate the reaction. Enzyme activity is monitored by fluorescence using 320 nm for excitation and 420 nm for the emission wavelengths using a Labsystems Fluroskan Ascent machine. Kinetic measurements were carried out using a Hitachi F-4500 Fluorescence Spectrophotometer.

[2] = substrate: CC(C)[C@H](NC(=O)c1ccccc1N)C(=O)N[C@@H](C)C(=O)N[C@@H](CCC(N)=O)C(=O)N[C@@H](CO)C(=O)N[C@@H](Cc1ccc(O)c([N+](=O)[O-])c1)C(=O)N[C@@H](CC(=O)O)C(N)=O
Procedure: as §1, §2, §3

[3] = substrate: CC(C)CC[C@H](NC(=O)[C@H](C)NC(=O)[C@H](CCC(N)=O)NC(=O)c1ccccc1N)C(=O)N[C@@H](CO)C(=O)N[C@@H](Cc1ccc(O)c([N+](=O)[O-])c1)C(=O)N[C@@H](CC(=O)O)C(N)=O
Procedure: as §1, §2, §3

[4] = substrate: CC(C)CC[C@H](NC(=O)[C@H](CC[S+](C)[O-])NC(=O)[C@@H](NC(=O)c1ccccc1N)C(C)C)C(=O)N[C@@H](CO)C(=O)N[C@@H](Cc1ccc(O)c([N+](=O)[O-])c1)C(=O)N[C@@H](CC(=O)O)C(N)=O
Procedure: as §1, §2, §3

[5] = substrate: CC(C)CC[C@H](NC(=O)[C@H](C)NC(=O)[C@H](Cc1ccc(-c2ccccc2)cc1)NC(=O)c1ccccc1N)C(=O)N[C@@H](Cc1cccnc1)C(=O)N[C@@H](Cc1ccc(O)c([N+](=O)[O-])c1)C(=O)N[C@@H](CC(=O)O)C(N)=O
Procedure: as §1, §2, §3

[6] = substrate: CC(C)[C@H](NC(=O)c1ccccc1N)C(=O)N[C@@H](C)C(=O)N[C@@H](CCCCN)C(=O)N[C@@H](CO)C(=O)N[C@@H](Cc1ccc(O)c([N+](=O)[O-])c1)C(=O)N[C@@H](CC(=O)O)C(N)=O
Procedure: as §1, §2, §3

[7] = substrate: CC(C)CC[C@H](NC(=O)[C@H](C)NC(=O)[C@H](CC(C)C)NC(=O)c1ccccc1N)C(=O)N[C@@H](CO)C(=O)N[C@@H](Cc1ccc(O)c([N+](=O)[O-])c1)C(=O)N[C@@H](CC(=O)O)C(N)=O
Procedure: as §1, §2, §3

[8] = substrate: CC(C)CC[C@H](NC(=O)[C@H](C)NC(=O)[C@H](CC1CCCCC1)NC(=O)c1ccccc1N)C(=O)N[C@@H](CO)C(=O)N[C@@H](Cc1ccc(O)c([N+](=O)[O-])c1)C(=O)N[C@@H](CC(=O)O)C(N)=O
Procedure: as §1, §2, §3

[9] = substrate: CC(C)CC[C@H](NC(=O)[C@H](C)NC(=O)[C@H](Cc1ccc(-c2ccccc2)cc1)NC(=O)c1ccccc1N)C(=O)N[C@@H](CC1CCCCC1)C(=O)N[C@@H](Cc1ccc(O)c([N+](=O)[O-])c1)C(=O)N[C@@H](CC(=O)O)C(N)=O
Procedure: as §1, §2, §3

[10] = substrate: CCCC[C@H](NC(=O)[C@H](C)NC(=O)[C@@H](NC(=O)[C@H](Cc1cccc2ccccc12)NC(=O)c1ccccc1N)C(C)C)C(=O)N[C@@H](CO)C(=O)N[C@@H](Cc1ccc(O)c([N+](=O)[O-])c1)C(=O)N[C@@H](CC(=O)O)C(N)=O
Procedure: as §1, §2, §3

[11] = substrate: CC(C)CC[C@H](NC(=O)[C@H](C)NC(=O)[C@H](Cc1ccc2ccccc2c1)NC(=O)c1ccccc1N)C(=O)N[C@@H](CO)C(=O)N[C@@H](Cc1ccc(O)c([N+](=O)[O-])c1)C(=O)N[C@@H](CC(=O)O)C(N)=O
Procedure: as §1, §2, §3

[12] = substrate: CC(C)[C@H](NC(=O)c1ccccc1N)C(=O)N[C@@H](C)C(=O)N[C@@H](Cc1cccnc1)C(=O)N[C@@H](CO)C(=O)N[C@@H](Cc1ccc(O)c([N+](=O)[O-])c1)C(=O)N[C@@H](CC(=O)O)C(N)=O
Procedure: as §1, §2, §3

[13] = substrate: CC(C)CC[C@H](NC(=O)[C@H](C)NC(=O)[C@@H](NC(=O)c1ccccc1N)C(C)C)C(=O)N[C@@H](CO)C(=O)N[C@@H](Cc1ccc(O)c([N+](=O)[O-])c1)C(=O)N[C@@H](CC(=O)O)C(N)=O
Procedure: as §1, §2, §3

B1: Der pI (Dermatophagoides pteronyssinus) (protein)
chain: TNACSINGNAPAEIDLRQMRTVTPIRMQGGCGSCWAFSGVAATESAYLAYRNQSLDLAEQELVDCASQHGCHGDTIPRGIEYIQHNGVVQESYYRYVAREQSCRRPNAQRFGISNYCQIYPPNVNKIREALAQTHSAIAVIIGIKDLDAFRHYDGRTIIQRDNGYQPNYHAVNIVGYSNAQGVDYWIVRNSWDTNWGDNGYGYFAANIDLMMIEEYPYVVIL
notes: tissue SmithKline-Beecham, U.K (crude mite extract); host or cells: crude house dust mite extract
[1]
  Km: 5.0 µM
[2]
  Km: 6 µM
[3]
  Km: 12 µM
[4]
  Km: 35 µM
[5]
  Km: 4 µM
[6]
  Km: 14 µM
[7]
  Km: 18 µM
[8]
  Km: 9 µM
[9]
  Km: 2.5 µM
[10]
  Km: 17 µM
[11]
  Km: 15 µM
[12]
  Km: 10 µM
[13]
  Km: 4 µM
